The labels stand for the following.
T1: human IL13Rα2 (interleukin-13 receptor subunit alpha-2) (human, UniProt Q14627 27-380)
T1 construct: whole, on cells; also called IL13Ra2
T1 sequence (looked up): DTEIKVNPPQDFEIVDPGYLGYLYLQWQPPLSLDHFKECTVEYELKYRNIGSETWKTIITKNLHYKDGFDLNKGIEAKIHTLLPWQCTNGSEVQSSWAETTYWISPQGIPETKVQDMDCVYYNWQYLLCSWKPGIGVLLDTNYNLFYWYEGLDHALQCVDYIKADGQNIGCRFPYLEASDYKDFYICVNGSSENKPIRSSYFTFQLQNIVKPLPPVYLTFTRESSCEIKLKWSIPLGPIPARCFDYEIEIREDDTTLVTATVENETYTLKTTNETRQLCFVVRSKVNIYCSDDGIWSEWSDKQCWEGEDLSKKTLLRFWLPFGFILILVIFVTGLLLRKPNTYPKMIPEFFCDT

B1: 6A murine anti-IL13Rα2 monoclonal antibody (antibody, V domains shown)
VH: EVQLQQSGPELVKPGASVKISCKTSGYTFTEYTMHWVKQSHGKSLEWIGIINPNNGGTNYNQKFKGKATLTVDKSSSTAYMELRSLTSEDSAVYYCARPSATHYFDYWGQGTTLTVSS
VL: DIKMTQSPSSMYASLGERVTITCKASQDIKSYLSWFQQKPGKSPKTLIYRANRLVDGVPSRFSGSGSGQDYSLTISSLEYEDMGIYYCLQYDEFPLTFGAGTKLELK
notes: Tested as hybridoma supernatant; also called IL13Rα2_6A; clone 6A
B2: 143A murine anti-IL13Rα2 monoclonal antibody (antibody, V domains shown)
VH: DVQLVESGGGLVQPGGSRKLSCAASGFTFSSFGMHWVRQAPEKGLEWVAYISSGSSTIYYADTVKGRFIISRDNPKNTLFLQMTSLRSEDTAMYYCARKYEGYAMDYWGQGTSVTVSS
VL: B1 VL with K30N, Y87S
notes: Tested as hybridoma supernatant; also called IL13Rα2_143A; clone 143A
B3: 46A murine anti-IL13Rα2 monoclonal antibody (antibody, V domains shown)
VH: QVQLKQSGPGLVQPSQSLSITCTVSGFSITKYGVHWVRLSPGKGLEWLGVIWSGGSTDYNAAFISRLNISKDNSKSQVFFKMNSLQANDTAIYYCARDFGDTMDYWGQGTSVTVSS
VL: QIVLTQSPAIMSASLGERVTMTCTASSSVTSSYLHWYQQKPGSSPKLWIFSTSNLASGVPARFSGSGSGTSYSLTISSMEAEDAATYYCHQYHRSPLTFGAGTKLELK
notes: Tested as hybridoma supernatant; also called IL13Rα2_46A; clone 46A
B4: 82B murine anti-IL13Rα2 monoclonal antibody (antibody, V domains shown)
VH: B3 VH with I29L, K31S, L39Q, N68S, F99R, G100Y, T102A, M103F, S111T, V112L
VL: B3 VL with T30S, F50Y
notes: Tested as hybridoma supernatant; also called IL13Rα2_82B; clone 82B

Numbering of substitutions follows the chain as printed.

This assay deals with T1, human IL13Rα2 (interleukin-13 receptor …). Put plainly: flow cytometry of hybridoma supernatants on IL13Rα2-transfected 300.19 cells; specificity further validated on IL13Rα2-transfected COS cells and U251 cells. On the technique in general: In flow cytometry, cells or beads pass a laser one at a time.
Consider B1, for which the binding result is given as “binds”.

On to B2, for which the binding result is reported as “binds”. For B3 the value was “binds”; for B4, “binds”.
